Consider one substance from publication PMC4967043.

The assay addresses (SIM)m, m = 1. Description: ITC. For orientation: ITC needs no label: the signal is the heat of the interaction.

The term Kd denotes the free concentration of one partner at which half of the binding sites on the other are occupied at equilibrium, for simple one-to-one binding. A lower Kd goes with tighter binding. Substance “(SUMO)m, m = 1 (from UniProt P55854 1-92) (natural protein)” had a Kd of 10 µM.
